Experimental data reported in PMC3942423 (Nature chemical biology, 2009).

What was measured:
[1] = system: GH92 enzymes; assay: EDTA inactivation and metal reactivation; assay type: biochemical, Bacteroides thetaiotaomicron; conditions: all the GH92 enzymes analyzed
[2] = biological target: T1, Bt3990 (Bacteroides thetaiotaomicron, UniProt Q8A0N1); assay: inhibition studies; assay type: biochemical
T1 sequence (Q8A0N1 20-755): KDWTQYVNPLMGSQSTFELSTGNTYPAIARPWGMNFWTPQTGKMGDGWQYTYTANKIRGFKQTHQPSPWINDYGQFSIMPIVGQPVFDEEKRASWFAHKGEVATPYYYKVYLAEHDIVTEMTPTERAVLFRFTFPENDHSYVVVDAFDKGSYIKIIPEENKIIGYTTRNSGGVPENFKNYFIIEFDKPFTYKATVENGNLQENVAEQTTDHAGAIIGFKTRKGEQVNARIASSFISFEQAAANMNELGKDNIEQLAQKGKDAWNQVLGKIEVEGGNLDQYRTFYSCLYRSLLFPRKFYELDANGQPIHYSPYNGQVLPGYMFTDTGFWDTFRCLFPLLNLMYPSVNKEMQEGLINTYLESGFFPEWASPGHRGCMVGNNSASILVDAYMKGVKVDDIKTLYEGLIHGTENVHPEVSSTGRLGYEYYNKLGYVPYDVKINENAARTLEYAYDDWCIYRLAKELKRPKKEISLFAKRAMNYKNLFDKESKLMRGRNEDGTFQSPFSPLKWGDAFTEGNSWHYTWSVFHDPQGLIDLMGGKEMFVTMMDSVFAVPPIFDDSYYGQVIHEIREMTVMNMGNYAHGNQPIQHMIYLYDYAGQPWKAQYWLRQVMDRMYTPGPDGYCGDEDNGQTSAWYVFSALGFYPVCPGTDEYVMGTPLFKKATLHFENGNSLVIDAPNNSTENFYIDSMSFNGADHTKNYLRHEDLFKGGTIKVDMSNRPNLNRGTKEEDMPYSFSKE

[3] = system: Bt3990 E533A variant; assay: kinetics of enzyme variant on DNP-Man; assay type: biochemical, Bacteroides thetaiotaomicron; conditions: E533A variant of Bt3990, activated aryl mannoside
[4] = biological target: Bt3990 E585A (Bacteroides thetaiotaomicron, UniProt Q8A0N1, E585A); assay: kinetics of enzyme variant; assay type: biochemical; conditions: E585A of Bt3990, activated substrate
[5] = substrate: O=[N+]([O-])c1ccc(O[C@H]2O[C@H](CO)[C@@H](O)[C@H](O)[C@@H]2O)cc1; assay: 4NP-Man hydrolysis kinetics; assay type: biochemical, Bacteroides thetaiotaomicron; conditions: other: substrate 4NP-Man
[6] = substrate: OC[C@H]1O[C@H](O[C@H]2[C@H](O)[C@H](O)[C@@H](O)O[C@@H]2CO)[C@@H](O)[C@@H](O)[C@@H]1O; assay: mannobiose hydrolysis kinetics; assay type: biochemical, Bacteroides thetaiotaomicron; conditions: other: most active mannobiose substrate
[7] = substrate: OC[C@H]1O[C@H](O[C@@H]2[C@H](O)[C@@H](O)O[C@H](CO)[C@H]2O)[C@@H](O)[C@@H](O)[C@@H]1O; assay: purified protein, by the assay type; conditions: other: most active mannobiose substrate; enzyme Bt1878; pH 7.0; 37.0 °C

## [Ca+2] [calcium]
[1]
  recovery of activity after EDTA: fully recovered

## OC[C@@H]1[C@@H](O)[C@H](O)[C@H](O)c2nccn21 [mannoimidazole]
[2]
  Ki: 140 µM

## O=[N+]([O-])c1ccc(O[C@H]2O[C@H](CO)[C@@H](O)[C@H](O)[C@@H]2O)c([N+](=O)[O-])c1 [DNP-Man]
[3]
  kcat/Km relative to the wild-type enzyme: 370%
[4]
  change of kcat/Km: increased

## O=C(O)CN(CCN(CC(=O)O)CC(=O)O)CC(=O)O [EDTA]
[1]
  effect on enzyme activity: inactivated

B1: Bt4073 (Bacteroides thetaiotaomicron VPI-5482) (protein)
chain: GVVTEDLIPTDYVNPFIGASTSVGAAGVYHGLGKTFPGATTPYGMVQVSPNTITGGDNSSGYSDEHKTIEGFAFTQMSGVGWFGDLGNFLVMPTTGELQKIAGKEDGSIKGYRSSYDKATETAKAGYYSVELTDYKIKVESSATPHCGILQFTFPSNEQSRIQIDLARRVGGTSTSQYVKVLDDYTIQGWMKCTPDGGGWGNGEGNSDYTVYYYAQFSKPLSNYGFWSADIPDEWVRKRDEVVSIPYLTRISQAPVIKDKKELEGKHLGFFTEFPTKEGEQVEMKVGISFVDMEGAANNFKQEIASKNFAQVKQEASDLWNKELSRIRISGGTDDEKTVFYTSLYHTMIDPRIYTDVDGRYIGGDKKVHEQDGTFTKRTIFSGWDVFRSQFPLQAMINPRLVSDALNSLITMADQSRREYYERWELLNSYSGCMIGNPALSVLADAYMKGIRTYDVEKAYQYAVNTSAKFGNDSLGYTPEPLSISYTLEYAYADWCVAQLAKALGKEEDAKRFYEKGQAYRNMFDAEKGWFRPRNADGSWKAWPENALTEEWYGCIESNAYQQGWFVPHDVPGMVELMGGKEEVIANLTNLFDHTPSDMLWNDYYNHANEPVHFVPFLFNQLDVPWYTQKWTRYICKNAYANKVEGIVGNEDVGQMSAWYILAASGIHPSCPGNTRMEITSPVFDKVEFNLDSKYHQGKVFTIIAHNNNTNNLYIQKALLNGKEYNKCYLDFAEIAAGGTLELFMGDKPNTEWGVLSNI
[5]; enzyme Bt4073, pH 7.0
  Km: 1800 ± 210 µM
  kcat: 0.0045 ± 0.000233 s⁻¹
  kcat/Km: 2.33 M⁻¹ s⁻¹
[6]; enzyme Bt4073, pH 7.0
  Km: 270 ± 49 µM
  kcat: 183 ± 9.33 s⁻¹
  kcat/Km: 683000 M⁻¹ s⁻¹

B2: Bt3530 (Bacteroides thetaiotaomicron VPI-5482) (protein)
chain: MTPSVAQNTKYVNLFIGTSGDNGQVAPGAAAPFGMVCVCPDNDPRSHAGYDYAVTKVSGISVNRLSGVGCSGGGGNLRIRPVAPSQELHIKKSREKATPGYYSTAFTNGIKTELTATNAMAVERYKFPRSLSAALWIDFASTFEDVATCHYKRISETCIEGYVQAKNVCGHGCYKLYFSLNTSQPFQLEEQKETTACLTFGKKVRSVEVRIGLSALSSELASWECARWEKMDFEDVKSRTADQWEKQLSAIDVKGGKKDDRVIFYTSLYRTYLSPADVSSPDGAYLGTDGKVYISEDFRYYSNWSLWDTFRTKFPLLVLTEPAKMRDMATSLIHLYATGKKDWSTGFESTPTVRTEHAVILLLDAYRKGITNLDFRKGYAGMKQEMERLPMRSPDQKMESAYDLWAMAKIAEIIGEKADSEQYRQRSVSLFEETWKKEFMNVTPAFEVMKNNGLYQGTRWQYRWAAPQYIDKMIEWVGQDSLRLQLTYFFDHHLYNQGNEPDIHVPYLFNRLGAPEKTQQIVRSLMTEPMIHKYGGNSEFKTPYLGKAFKNAPEGYSPEMDEDDGTMSAWYVFGAMGFYPLLVGDEYYDLTSPLFDRVLLRLTNGNVLTIQTEGRKKKDAPIKSIHFNGKKIADYRISHNELIKGGELIYNYK
[6]; enzyme Bt3530, pH 7.0
  kcat: 0.001 ± 8.33e-05 s⁻¹
  kcat/Km: 1.58 M⁻¹ s⁻¹

B3: Bt4093 (Bacteroides thetaiotaomicron VPI-5482) (protein)
chain: GDYVHQVNTLIGTKGTGLTSGYLYPGATYPYGMVQFTPSYFSKRSGFVINQLSGGGCEHMGNFPTFPVKGKLKMSPDNILNYRINVSEEKGHAGYYEAMVQEDIKAKLTVTERTGMASYEYPADQQYGTIIIGGGISATPIEQAAIVITAPNKCEGYAEGGNFCGLRTPYKVYFVAEFDTDAFETGTWKREELMPNTTFAEGEYSGVYFTFDVNKKKNIQYKIGVSYVSVENARENLKAENAEWDFQKIQNQAEAKWNHYLGMIEVEGTNPDRTTQFYTHLYRSFIHPNVCSDVNGEYMGADFRVHKSRSKHYTSFSNWDTYRTQIQLLSMLDPEVASDIVISHQLFAEQSGGSFPRWVMANIETGVMQGDPTPILIANAYAFGARNYDPKPIFKIMRKGAEEPGSKSQDVETRPGLKQYLDKGYYNASIQLEYTSADFAIGQFALHAVGDEFASWRYFHFARSWKNLYNSDTGWLQSRNPDGSWKSLGEDFRESTYKNYFWMVPYDIAGLVEIIGGKEKAEKRLDEFFTRLDAGYNDAWFASGNEPSFHIPWIYNWIGRPYKTQEIINRVLNEQYSSKIDGLPGNDDLGTMGAWYVFACIGLYPEIPGVGGFTVNTPIFSSVKVHLKKGDIVIKGGSEKDIYIKSMKLNGKSYESTWIDWDQLNSGATIEYRTSGKPDMKWGAKVVPPSFP
[5]; enzyme Bt4093, pH 7.0
  Km: 1300 ± 190 µM
  kcat: 0.0112 ± 0.000817 s⁻¹
  kcat/Km: 9.08 M⁻¹ s⁻¹
[6]; enzyme Bt4093, pH 7.0
  Km: 35000 ± 2400 µM
  kcat: 1.33 ± 0.065 s⁻¹
  kcat/Km: 38.3 M⁻¹ s⁻¹

B4: Bt3965 (Bacteroides thetaiotaomicron VPI-5482) (protein)
chain: MAQTEKLTDYVNPFVGTDGYGNVYPGAQIPFGGIQISPDTDSRFYDAASGYKYNHLTLMGFSLTHLSGTGIPDLGDFLFIPGTGEMKLEPGTHEDPDQGYRSRYSHDKEWASPNYYAVELADYGVKAEMTSGVRSGMFRFTYPESDNAFIMIDMNHTLWQSCEWSNLRMINDSTITGYKLVKGWGPERHVYFTATFSKKLTGLRFVQDKKPVIYNTSRFRSSYEAWGKNLMACISFDTKAGEEVTVKTAISAVSTDGARNNMKELDGLTFNELRAKGEALWEKELGKYTLTADRKTKETFYTSAYHAALHPFIFQDSDGQFRGLDKNIEKAEGFTNYTVFSLWDTYRALHPWFNLVQQEVNADIANSMLAHYDKSVEKMLPIWSFYGNETWCMIGYHAVSVLADMIVKEVKGFDYERAYEAMKTTAMNSNYDCLPEYREMGYVPFDKEAESVSKTLEYAYDDYCIAQAAKKLGKEDDYHYFLNRALSYQTLIDPETKYMRGRDSKGDWRTPFTPVAYQGPGSVHGWGDITEGFTMQYTWYVPQDVQGYINEAGKELFRKRLDELFTVELPDDIPGAHDIQGRIGAYWHGNEPCHHVAYLYNYLKEPWKCQKWIRTIVDRFYGNTPDALSGNDDCGQMSAWYMFNCIGFYPVAPSSNIYNIGSPCAEAITVRMSNGKNIEMTADNWSPKNLYVKELYVNGKKYDKSYLTYDDIRDGVKLRFVMSGKPNYKRAVSDEAVPPSISLPEKTMKYKSSIGF
[5]; enzyme Bt3965, pH 7.0
  kcat: 0.233 ± 0.00667 s⁻¹
  kcat/Km: 233 M⁻¹ s⁻¹
[6]; enzyme Bt3965, pH 7.0
  kcat: 1.48 ± 0.113 s⁻¹
  kcat/Km: 183 M⁻¹ s⁻¹

B5: Bt1878 (Bacteroides thetaiotaomicron VPI-5482) (protein)
chain: ETKDYTQYVNTFIGAADNGHTFPGACYPFGMIQTSPVTGAVGWRYCSEYTYQDSLIWGFTQTHLNGTGCMDLGDILVMPVTGTRARAWDAYRSHFPKDKEAATPGYYTVELSDPQVKAELTASIHAALHRYTYHKADSASLLIDLQHGPAWREEQYHSQVNSCEVNWEDAQTLAGHVNNTVWVDQDYFFVMKFNRPVIDSLYLPMGETEKGKRIIATFDLKPGDELMMKVALSTTSVEGAKKNLQAEIPDWNFDGVKLAAHDEWNSYLSRMDVEGTDDEKTNFYTCFYHALIQPNQISDVDGMYRNAADSIVKAGTGTFYSTFSLWDTYRAAHPFYTLMVPERVDDFVNSLIEQGEVQGFLPIWALWGKENFCMIGNHGVSVIAEAYRKGFRGFDAERAFNMVKKTQTVSHPLKSDWEVYTKYGYFPTDLTKAESVSSTLESVYDDYAAADMARRMGKEEDAAYFAKRADYYKNLFDSQTNFMRPRKADGTWKSPFNPSDVGHAESTGGDYTEGNAWQYTWHVQHDVPGLIALFGGEEPFLNKLDSLFTVKLETTQADVTGLIGQYAHGNEPSHHVTYLYALAGRPERTQELIREIFDTQYKNKPDGLCGNDDCGQMSAWYMFSAMGFYPVDPVSGDYVFGAPQLPKIVLHLADGKTFTVIAENLSKEHKYVDSITLNGEPYTKNTISHEDILKGGTLVYKMK
[7]
  Km: 2000 ± 380 µM
  kcat: 0.283 s⁻¹
  kcat/Km: 140 M⁻¹ s⁻¹
[5]; enzyme Bt1878, pH 7.0
  Km: 900 ± 130 µM
  kcat: 0.00133 ± 8.33e-05 s⁻¹
  kcat/Km: 1.48 M⁻¹ s⁻¹
